How the values were obtained:
Rtt109 = target: T1, Rtt109 (UniProt Q07794 1-436); test: PELDOR; 100 μM Vps75 Y35RX2 dimer with Rtt109 at ratios 2:0, 2:0.25, 2:0.5 and 2:1 (Vps75:Rtt109); settings: both partners purified
T1 construct: expressed from a pET28a-derived vector, a gift from Paul Kaufman; also called histone acetyltransferase Rtt109
T1 sequence: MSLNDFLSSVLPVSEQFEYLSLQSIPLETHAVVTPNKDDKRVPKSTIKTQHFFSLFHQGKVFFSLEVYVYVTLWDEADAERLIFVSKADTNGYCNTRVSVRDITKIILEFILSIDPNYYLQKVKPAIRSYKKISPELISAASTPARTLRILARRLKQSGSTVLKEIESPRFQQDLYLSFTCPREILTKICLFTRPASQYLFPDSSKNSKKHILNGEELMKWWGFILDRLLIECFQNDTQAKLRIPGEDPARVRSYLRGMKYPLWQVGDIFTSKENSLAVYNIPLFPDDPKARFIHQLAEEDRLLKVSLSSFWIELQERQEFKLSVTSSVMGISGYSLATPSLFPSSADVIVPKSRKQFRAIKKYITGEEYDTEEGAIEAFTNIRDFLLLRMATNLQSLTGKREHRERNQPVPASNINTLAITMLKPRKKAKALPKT

[1] = target: the molecule itself; test: as above

B1: Vps75 Y35RX2 (natural protein, budding yeast, UniProt P53853 1-264, looked up)
chain: MMSDQENENEHAKAFLGLAKAEEEVDAIEREVELCRLNKMKPVYEKRDAYIDEIAEFWKIVLSQHVSFANYIRASDFKYIDTIDKIKVEWLALESEMYDTRDFSITFHFHGIEGDFKEQQVTKVFQIKKGKDDQEDGILTSEPVPIEWPQSYDSINPDLIKDKRSPEGKKKYRQGMKTIFGWFRWTGLKPGKEFPHGDSLASLFSEEIYPFAVKYYAEAQRDLEDEEGESGLSADGDSEDDDGSLGEVDLPLSDEEPSSKKRKV
modifications: 3,4-Bis-MTSL crosslinking spin label (RX2) joining cysteine 35 of the two chains of the dimer; deuterated protein
notes: Vps75 of budding yeast, open reading frame, unique cysteine at position 35; One spin label for each dimer; also called singly labelled Vps75 Y35RX2 dimer; not shown: His6, N-terminal, cleaved
Does B1 bind (Rtt109)?
Result: binds

Does B1 bind [1]?
Result: binds
